Assay results published in the RNAGym collection of RNA variant scans (doi:10.1073/pnas.2313332121).

B1: TPR t1 (parent)
chain: GACCAAUCUGCCCUCAGAGCUCGAGAACAUCUUCGGAUGCAGAGGAGGCAGGCUUCGGUGGCGCGAUAGCGCCAACGUCCUCAACCUCCAAUGCAUCCCACCACAUGAUGAUGCCUGAAGAGCCUUGGUUUUUUG

Variants of: B1
Experiment: polymerase ribozyme fitness, log enrichment relative to wild type (log ratio); higher = more active; in vitro selection for triplet polymerase activity
In short: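 Fitness is a logarithmic measure of how a genotype enriched relative to the wild type, with replicate averages weighted by inverse variance. The logarithm uses base 2, and enrichment came from Illumina sequencing of input and output libraries. Those libraries were PCR-built, transcribed mutants of each subunit of a heterodimeric triplet polymerase ribozyme, passed through one triplicate in vitro selection round that included frozen incubation at −7 °C, gel excision of extended constructs and streptavidin-bead capture. Genotypes were kept only if they had ≥10 input reads and ≥1 read per output.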

In order of falling “polymerase ribozyme fitness (log ratio)” value:
1. GACCAAUCUGCCCUCAGAGCUCGAGAACAUCUUCGGAUGCAGAGGAGGCAGGCUUCGGUGGCGCGAUAGCGCCAACGUCCUCAACCUCCAAUUCAUCCCACCACAUGAUGAUGCCUGAAGUGCCUUGGUUUUUUG  1.23
2. GACCAAUCUGCCCUCAGAGCUCGAGAACAUCUUCGGAUGCAGAGGAGGCAGGCUUCGGUGGCGCGAUAGCGCCAACGUCCUCAACCUCCAAUCCAUCCCACCACAUGAUGAUGCCUGAAGUGCCUUGGUUUUUUG  1.21
3. GACCAAUCUGCCCUCAGAGCUCGAGAACAUCUUCGGAUGCAGAGGAGGCAGGCUUCGGUGGCGCGAUAGCGCCAACGUCCUCAACCUCCAAUCCAUCCCACCACAUGAUGAAGCCUGAAGAGCCUUGGUUUUUUG  0.679
4. GACCAAUCUGCCCUCAGAGCUCGAGAACAUCUUCGGAUGCAGAGGAGGCAGGCUUCGGUGGCGCGAUAGCGCCAACGUCCUCAACCUCCAAUACAUCCCACCACAUGAUGAUGCCUGAAGAGGCUUGGUUUUUUG  0.42
5. GACCAAUCUGCCCUCAGAGCUCGAGAACAUCUUCGGAUGCAGAGGAGGCAGGCUUCGGUGGCGCGAUAGCGCCAACGUCCUCAACCUCCAAUUCAUCCCACCACAUGAUGAAGCCUGAAGAGCCUUGGUUUUUUG  0.151
6. GACCAAUCUGCCCUCAGAGCUCGAGAACAUCUUCGGAUGCAGAGGAGGCAGGCUUCGGUGGCGCGAUAGCGCCAACGUCCUCAACCUCCAAUACAUCCCACCACAUGAUGAUGCCUGUAGAGCCUUGGUUUUAUG  0.0816
7. GACCAAUCUGCCCUCAGAGCUCGAGAACAUCUUCGGAUGCAGAGGAGGCAGGCUUCGGUGGCGCGAUAGCGCCAACGUCCUCAACCUCCAAUACAUCCCACCACAUGAUGAUGCCUGAAGAGCCUUGGUUUUUUG  -0.498
8. GACCAAUCUGCCCUCAGAGCUCGAGAACAUCUUCGGAUGCAGAGGAGGCAGGCUUCGGUGGCGCGAUAGCGCCAACGUCCUCAACCUCCAACGCAUCCCACCACAUGAUGAAGCCUGAAGAGCCUUGGUUUUUUG  -0.53
9. GACCAAUCUGCCCUCAGAGCUCGAGAACAUCUUCGGAUGCAGAGGAGGCAGGCUUCGGUGGCGCGAUAGCGCCAACGUCCUCAACCUCCAAUCCAUCCCACCACAAGAUGAUGCCUGAAGAGCCUUGGUUUUUUG  -0.61
10. GACCAAUCUGCCCUCAGAGCUCGAGAACAUCUUCGGAUGCAGAGGAGGCAGGCUUCGGUGGCGCGAUAGCGCCAACGUCCUCAACCUCCAAUCCAUCCCACCACAUGAUGAUGCCUGAAGAGCCUUGGUUUUUUG  -0.928
11. GACCAAUCUGCCCUCAGAGCUCGAGAACAUCUUCGGAUGCAGAGGAGGCAGGCUUCGGUGGCGCGAUAGCGCCAACGUCCUCAACCUCCAAUACAUCCCACCACAUGAUGAUGCCUGAAGAGCCUUGGUUUUUUC  -1
12. GACCAAUCUGCCCUCAGAGCUCGAGAACAUCUUCGGAUGCAGAGGAGGCAGGCUUCGGUGGCGCGAUAGCGCCAACGUCCUCAACCUCCAAUUCAUCCCACCACAUGAUGAUGCCUGAAGAGCCUUGGUUUUUUG  -1.12
13. GACCAAUCUGCCCUCAGAGCUCGAGAACAUCUUCGGAUGCAGAGGAGGCAGGCUUCGGUGGCGCGAUAGCGCCAACGUCCUCAACCUCCAAUACAUCCCAUCACAUGAUGAUGCCUGAAGAGCCUUGGUUUUUUG  -1.15
14. GACCAAUCUGCCCUCAGAGCUCGAGAACAUCUUCGGAUGCAGAGGAGGCAGGCUUCGGUGGCGCGAUAGCGCCAACGUCCUCAACCUCCAAUACAUCCCACCACAUGAUGAUGCCUGAAGAGCCUUGGUGUUUUG  -1.45
15. GACCAAUCUGCCCUCAGAGCUCGAGAACAUCUUCGGAUGCAGAGGAGGCAGGCUUCGGUGGCGCGAUAGCGCCAACGUCCUCAACCUCCAAUCCAUCCCAACACAUGAUGAUGCCUGAAGAGACAUGGUUAUUUG  -1.5
16. GACCAAUCUGCCCUCAGAGCUCGAGAACAUCUUCGGAUGCAGAGGAGGCAGGCUUCGGUGGCGCGAUAGCGCCAACGUCCUCAACCUCCAAUUCAUCCCACCACAUGAUGAUGCCUGAAGAACCUUGGUUUUUUG  -1.55
17. GACCAAUCUGCCCUCAGAGCUCGAGAACAUCUUCGGAUGCAGAGGAGGCAGGCUUCGGUGGCGCGAUAGCGCCAACGUCCUCAACCUCCAAUACAACCCACCACAUGAUGAUGCCUGAAGAGCCUUGGUUUUUUG  -1.69
18. GACCAAUCUGCCCUCAGAGCUCGAGAACAUCUUCGGAUGCAGAGGAGGCAGGCUUCGGUGGCGCGAUAGCGCCAACGUCCUCAACCUCCAAUACAUCUCACCACAUGAUGAUGCCUGAAGAGCCUUGGUUUUUUG  -1.72
19. GACCAAUCUGCCCUCAGAGCUCGAGAACAUCUUCGGAUGCAGAGGAGGCAGGCUUCGGUGGCGCGAUAGCGCCAACGUCCUCAACCUCCAACGCAUCCCACCACAUGAUGAUGCCUGAAGAGCCGUGGUUUUUUG  -1.76
20. GACCAAUCUGCCCUCAGAGCUCGAGAACAUCUUCGGAUGCAGAGGAGGCAGGCUUCGGUGGCGCGAUAGCGCCAACGUCCUCAACCUCCAAUACAUCCCACAACAUGAUGAUGCCUGAAGAGCCUUGGUUUUUUG  -1.81
21. GACCAAUCUGCCCUCAGAGCUCGAGAACAUCUUCGGAUGCAGAGGAGGCAGGCUUCGGUGGCGCGAUAGCGCCAACGUCCUCAACCUCCAAUCCAUCCCACCAAAUGAUGAUGCCUGUAGAGCCUUGGUUUUUUG  -1.82
22. GACCAAUCUGCCCUCAGAGCUCGAGAACAUCUUCGGAUGCAGAGGAGGCAGGCUUCGGUGGCGCGAUAGCGCCAACGUCCUCAACCUCCAAUUCAGCCCACCACAUGAUGAUGCCUGAAGAGCCUUGGUUUUUUG  -1.89
23. GACCAAUCUGCCCUCAGAGCUCGAGAACAUCUUCGGAUGCAGAGGAGGCAGGCUUCGGUGGCGCGAUAGCGCCAACGUCCUCAACCUCCAAUACAUCCCACCACAUGAUGAUGCCUGAAGAGCCUUGAUUUUUUG  -1.95
24. GACCAAUCUGCCCUCAGAGCUCGAGAACAUCUUCGGAUGCAGAGGAGGCAGGCUUCGGUGGCGCGAUAGCGCCAACGUCCUCAACCUCCAAUACAUCCCACCACAUGAUUAUGCCUGAAGAGCCUUGGUUUUUUG  -2.04
25. GACCAAUCUGCCCUCAGAGCUCGAGAACAUCUUCGGAUGCAGAGGAGGCAGGCUUCGGUGGCGCGAUAGCGCCAACGUCCUCAACCUCCAAUCCAUCCCCCCACAUGAUGAUGCCUGAAGAGCCUUGGUUUUUUG  -2.34
26. GACCAAUCUGCCCUCAGAGCUCGAGAACAUCUUCGGAUGCAGAGGAGGCAGGCUUCGGUGGCGCGAUAGCGCCAACGUCCUCAACCUCCAAUCCACCCCACCACAUGAUAAUGCCUGCAGAGCCUUGGUUUUUUG  -2.57
27. GACCAAUCUGCCCUCAGAGCUCGAGAACAUCUUCGGAUGCAGAGGAGGCAGGCUUCGGUGGCGCGAUAGCGCCAACGUCCUCAACCUCCAAUACAUCCCGCCACAUGAUGACGCCUGAAGAGCCUUGGUUAUUUG  -2.69
28. GACCAAUCUGCCCUCAGAGCUCGAGAACAUCUUCGGAUGCAGAGGAGGCAGGCUUCGGUGGCGCGAUAGCGCCAACGUCCUCAACCUCCAAUACAUCCCACCACAUGAUGAUGCCUGAAGAGCCUUGCUUUUUUG  -2.72
29. GACCAAUCUGCCCUCAGAGCUCGAGAACAUCUUCGGAUGCAGAGGAGGCAGGCUUCGGUGGCGCGAUAGCGCCAACGUCCUCAACCUCCAAUACAUCCCACUACAUGAUGAUGCCUGAAGAGCCUUGGUUUUUUG  -2.73
30. GACCAAUCUGCCCUCAGAGCUCGAGAACAUCUUCGGAUGCAGAGGAGGCAGGCUUCGGUGGCGCGAUAGCGCCAACGUCCUCAACCUCCAAUACAUCCCACCACAUGAUAAAGCCUGAAGAGCCUUGGUUUUUUG  -2.76
31. GACCAAUCUGCCCUCAGAGCUCGAGAACAUCUUCGGAUGCAGAGGAGGCAGGCUUCGGUGGCGCGAUAGCGCCAACGUCCUCAACCUCCAAUCCAUCCCACAACAUGAUGAUGCCUGAAGAGCCUUGGUUUUUUG  -2.96
32. GACCAAUCUGCCCUCAGAGCUCGAGAACAUCUUCGGAUGCAGAGGAGGCAGGCUUCGGUGGCGCGAUAGCGCCAACGUCCUCAACCUCCAAUACAUCCCACCACAUGAUGAUGACUGAAGAACCUUGGUUAUUUG  -3.27
33. GACCAAUCUGCCCUCAGAGCUCGAGAACAUCUUCGGAUGCAGAGGAGGCAGGCUUCGGUGGCGCGAUAGCGCCAACGUCCUCAACCUCCAAUUCAUCUCACCACAUGAUGAUGCCUGAACAGCCUUGGUUUUUUG  -3.66
34. GACCAAUCUGCCCUCAGAGCUCGAGAACAUCUUCGGAUGCAGAGGAGGCAGGCUUCGGUGGCGCGAUAGCGCCAACGUCCUCAACCUCCAAGCCAUCCCACCACAUGAUGAUGCCUGAAGAGCCUUGGUUUUUUG  -3.76
35. GACCAAUCUGCCCUCAGAGCUCGAGAACAUCUUCGGAUGCAGAGGAGGCAGGCUUCGGUGGCGCGAUAGCGCCAACGUCCUCAACCUCCAAUUCAUCCCACCACAUGAUCAUGCCUGAAGAGCCUUGGUUUUUUG  -4.54
36. GACCAAUCUGCCCUCAGAGCUCGAGAACAUCUUCGGAUGCAGAGGAGGCAGGCUUCGGUGGCGCGAUAGCGCCAACGUCCUCAACCUCCAAUUCAUCCCACCACAUGAUGAUGCCUGAAGAGCCUUGCUUUUUUG  -4.57
37. GACCAAUCUGCCCUCAGAGCUCGAGAACAUCUUCGGAUGCAGAGGAGGCAGGCUUCGGUGGCGCGAUAGCGCCAACGUCCUCAACCUCCAAUACAUCCCACCACAUGAUGUUGCCUGAAGACCCUUGGUUUUUUG  -4.63
38. GACCAAUCUGCCCUCAGAGCUCGAGAACAUCUUCGGAUGCAGAGGAGGCAGGCUUCGGUGGCGCGAUAGCGCCAACGUCCUCAACCUCCAAUUCAUCCCAACACAUGAUGAUACGUGAAGAGCCUUGGUUUUUUG  -4.73
39. GACCAAUCUGCCCUCAGAGCUCGAGAACAUCUUCGGAUGCAGAGGAGGCAGGCUUCGGUGGCGCGAUAGCGCCAACGUCCUCAACCUCCAAGGCAUCCCACCACAUGAUGAUGCCUGAAGAUCUUCGGUUUUUUG  -5.41
40. GACCAAUCUGCCCUCAGAGCUCGAGAACAUCUUCGGAUGCAGAGGAGGCAGGCUUCGGUGGCGCGAUAGCGCCAACGUCCUCAACCUCCAAUUCUUGCCACCACAUGAUGAUGCCUGAAUAGCUUUGGUUUUUUG  -6.74
41. GACCAAUCUGCCCUCAGAGCUCGAGAACAUCUUCGGAUGCAGAGGAGGCAGGCUUCGGUGGCGCGAUAGCGCCAACGUCCUCAACCUCCAAGGCAUCCCACCAGAUGAUGAUGCCUGAAGAGCCUUGGUUUUUUG  -7.29
42. GACCAAUCUGCCCUCAGAGCUCGAGAACAUCUUCGGAUGCAGAGGAGGCAGGCUUCGGUGGCGCGAUAGCGCCAACGUCCUCAACCUCCAAUCCAUCCCACCACUUGAUGAUGGCUGAGGAGCCUUGGUUUUUUG  -7.51
